Results from article PMC11381544 (Nature Communications, 2024).
Numbering of substitutions follows the chain as printed. Names may count otherwise.

B1: D106A/D^P3H1 (protein, UniProt Q32P28 23-736, looked up, variant D106A)
Prolyl 3-hydroxylase 1: EVESEAGWGMVTPDLLFAEGTAAYARGDWPGVVLSMERALRSRAALRALRLRCRTQCAADFPWELDPDWSPSPAQASGAAALRALSFFGGLLRRAACLRRCLGPPAAHSLSEEMELEFRKRSPYNYLQVAYFKINKLEKAVAAAHTFFVGNPEHMEMQQNLDYYQTMSGVKEADFKDLETQPHMQEFRLGVRLYSEEQPQEAVPHLEAALQEYFVAYEECRALCEGPYDYDGYNYLEYNADLFQAITDHYIQVLNCKQNCVTELASHPSREKPFEDFLPSHYNYLQFAYYNIGNYTQAVECAKTYLLFFPNDEVMNQNLAYYAAMLGEEHTRSIGPRESAKEYRQRSLLEKELLFFAYDVFGIPFVDPDSWTPEEVIPKRLQEKQKSERETAVRISQEIGNLMKEIETLVEEKTKESLDVSRLTREGGPLLYEGISLTMNSKLLNGSQRVVMDGVISDHECQELQRLTNVAATSGDGYRGQTSPHTPNEKFYGVTVFKALKLGQEGKVPLQSAHLYYNVTEKVRRIMESYFRLDTPLYFSYSHLVCRTAIEEVQAERKDDSHPVHVDNCILNAETLVCVKEPPAYTFRDYSAILYLNGDFDGGNFYFTELDAKTVTAEVQPQCGRAVGFSSGTENPHGVKAVTRGQRCAIALWFTLDPRHSERDRVQADDLVKMLFSPEEMDLSQEQPLDAQQGPPEPAQESLSGSESKPKDEL
B2: R76D^P3H1 (protein)
chain: B1 Prolyl 3-hydroxylase 1 with R54D, A84D

Test system: CRTAP
Assay: Strep-tactin pulldown, P3H1 mutants with CRTAP
Type: binding, human
Settings: P3H1 mutations at the X-interface, Fig. 2g

Row | Molecule | formation of the PCP complex
1 | B1 | significantly decrease the formation of the PCP complex
2 | B2 | significantly decrease the formation of the PCP complex
